Experiment: soluble on expression in E. coli; label from the status in PepcDB or PDB records

Sequence	soluble on expression in E. coli
MSVIRKEDGAGGKYMVELLKKHVFPKIASRAGEIALEDMEDSSDFCDDFAFTTDSYVVSPPIFRGGSIGSLSVCGTSNDLAVMGAKPEFMSLALVIQDGFPLGDFRRIMDDIRDSVELVNLSIITGDTKVVESNVGIIVNTAGIGRRSEELERNLEVLRELRDYPYRWVRDKGLKEGDAIIVSGSIAEHAAVIMAERMGFEVEFKSDVYPVWLFVREALRRGGVTAMKDPTRGGIAAALNEMAEKSGVGIKIFEERIPLKDEVRGLCELLGLDPLTMANEGKVVFGVHPEMADEVLKALHKAGQKEAEIIGYATKEFAEVVLETAVGTTRVVPQPISDPIPRVC	not soluble
MSDKNIQDRAAGAIMGAFIGDALGLGPHWYYDLSELRRDYDDWITGYTDPKPDRYHAGLKAGQLSQSGFILKLMVRSLVGCGGYDTEDFCHRMDEELFPLLDGTPVNGPGGYTSQSIRETWRRRVQQMLPWGQTGGHADTTEAVERTLAIAVRYAYQPEQLAAAVSANTTLTQTDETIVSMTVAYGAVLGLLIQGHALDTGLSGKLMDLVKSGALPFHAVTGDDLQPPRPGDPDPPRAGRFASPDALLTPSYMAAAAVDPEIRIEPAWKVSIVYGMPCAIYHQLPAAYYLAARFRDDFKSAVLHAVNGGGQNQARAMLTGALAGAQTGLSGIPQYLLDGLDNSAVLGKLAVELAASVNPIMAGDPNSLEHHHHHH	not soluble
SLHIQRKSTMSKCSADETPVCCCMDVGTIMDNSDCTASYSRVFANRAEAEQTLAALTEKARSVESEPCKITPTFTEESDGVRLDIDFTFACEAEMLIFQLGLR	soluble
MENFAEIVGIGPAGVISITGGGGKTSLMFHLARQLAYSGKRVLTTTTTKILAPSVEESRTLLISQDPQVILRHAKAHPGPGVHVSAAAGHIPHTEKLQGFPREAIRTFEDSGEFDWVVVEADGAARKPLKAPAAHEPVIPGNSTIVVALAGLEVLGRPLGEEMVFRSELAGELMQIPQGETITVPALARLLAHPSGGFKGAPPQARRFIFLNKADTPELQEKGGEVALQLKEIAPSVAEAVIVGQLRQEITLHRVYPRGELEHHHHHH	soluble
MPPSPLDDRVVVALSRPVRPQDLNLCLDSSYLGSANPGSNSHPPVIATTVVSLKAANLTYMPSSSGSARSLNCGCSSASCCTVATYDKDNQAQTQAIAAGTTTTAIGTSTTCPANQMVNNNENTGSLSPSSGVGSPVSGTPKQLASIKIIYPNDLAKKMTKCSKSHLPSQGPVIIDCRPFMEYNKSHIQGAVHINCADKISRRRLQQGKITVLDLISCREGKDSFKRIFSKEIIVYDENTNEPSRVMPSQPLHIVLESLKREGKEPLVLKGGLSSFKQNHENLCDNSLQLQECREVGGGASAASSLLPQPIPTTPDIENAELTPILPFLFLGNEQDAQDLDTMQRLNIGYVINVTTHLPLYHYEKGLFNYKRLPATDSNKQNLRQYFEEAFEFIEEAHQCGKGLLIHCQAGVSRSATIVIAYLMKHTRMTMTDAYKFVKGKRPIISPNLNFMGQLLEFEEDLNNGVTPRILTPKLMGVETVV	soluble
MAHHHHHHMHRSLLRCALPGEPMLESYRSGVLRCLRCHLGAMRPDFPVGSAATEVAALASTATTPLTCSRRAFRQQGAAHPNTPDATEAAELEKDWQALKTYGMIGGFALLCVATLWYGSRQAKQRYFGAEGSARVSVETRGRPALGGPFVLVNTKGEPVSQAEFLGSWAFFYFGFTHCPEICPVELNRMSHVVDAVRAARPQERIAPLFVSCDPRRDSLEAIDEYLSVFHPDFIGLVGTPKQVNDACRSYRIYYSIPTDEDAAQEDYLIDHSIAIFLFDPQGRFVDFFGNRYDEREITEKVLHYMSEYAKDPTWTNW	not soluble
MGSDKIHHHHHHMARRYVVVGGGPAGVVCAETLRRQDAEGSITLVCAEPGPPYSRMAIPYAMSGKIDESGTWLRKDWGHYEALGIALLHDRVTGVDSGARQVRLESGAPLSYDALLIATGSSPARPRVPGLDLPGVHSCWTLEDLRRIDPLLKPGRRVLLLGAGFVSCIILQSLVQRGAKVTVSCGSSGRMVRSMMDETAGGMIMRWCRAKGVEVLTAGRPTAIEQRDSGLLVTLDSGKSAEADLVIVGTGVKTNTAFLEGSGIAIEDGIIVDQYLGTNVPGIWAAGDVAQGFNCCTGLTEVHAIQPTAVEHGRVAAMNMSGHPTPFGGSLSMNTLETLGLISCSFGQWMGAEGGKQVRMVDEEHFRYLRLEFQGDRLVGANTVGMTNEIGIIRGLIQTKLRLGEWLERLTQDPSRLAEAYVACAQGV	not soluble
MSLSTGTMTLHRRLQVEYGLYQDRGRRPTMEDAHTVVSSLPIPQLEEQDEGNTTVSLFAIMDGHCGDSASYYSAAQLASKVSECWPCCMTTSSIVSSLHNAHILMDAQFLEIARSSNILAGCTCLSTVIVTEAHRIRIFTANLGDSRAILCRHGAFSAWLKFSPPSAAAEANANRLNLISFFPGSRLVIPLSLDQKPNISPDRERIEAAGAFTYPSLIKYKDKIAIRGPHRIFPGGLAVPRAIGDLPYKDMTYLNSLGVSAPLVSSDPVISIYDLTEQDEFILQACDGLWDVISSKEAAIFASVMHYIHQLARMPHKAFKKLRRPLKQILFKMGVTSYYSPTSVAVAEALCNHAKLRGSQDNVTVSVIFPEFIKSEGHHHHHH	not soluble
GPGSMWKCYPLRCPAATGVFGCFKRLQDGYSAWCAAVSNQETASAKTSSRGSGAENTENLQLPIHTNPNACPRSVLVVPAGDIKDALRRQKRYDVVADVVMLDLTRGVFGGSDRSGGASEARDRLLRFLRESVRGDHMEGCSDDGEWKTQSGEGTVGQIFNGGRARWVVRVNSPEFDAARGFLDMELVGVLGDLIEGVVLPSVTANTYELVQEFIHPSHKLWAAFNTPLSVLQASAVCAQGHYRYAIVDREELAYEMQYPSVNSEKRSGSLNFSEDVEATQLKHVRSLPALHSACQVMTAAKAHGMYLFDGGFSDVSDSIGFRHDMQRCRAFGFDGRVVLRPSQIAACHEAFVPTSEEVEWAKAVQRTHCMDQYNVNGDNATSVGGDATCRRQRAALILERHAAVQWYNRNPQDDGMDMQRKGAGGNVPQGSVV	not soluble
MPDQISVSEFVAETLEDYKAPTASSFTRTAQCRNTAAAIEEDAVTYDDVHVNFTREEWNLLHPSQKSLYKDVMLETYWNLTVIGYTWENHHIERHCQSSRRNERFSLHCQLP	not soluble
MGHHHHHHSHTKSARVKGLSFHPKRPWILTSLHNGVIQLWDYRMCTLIDKFDEHDGPVRGIDFHKQQPLFVSGGDDYKIKVWNYKLRRCLFTLLGHLDYIRTTFFHHEYPWILSASDDQTIRVWNWQSRTCVCVLTGHNHYVMCAQFHPTEDLVVSASLDQTVRVWDISGLRKKNLSPGAVESDVRGITGVDLFGTTDAVVKHVLEGHDRGVNWAAFHPTMPLIVSGADDRQVKIWRMNESKAWEVDTCRGHYNNVSCAVFHPRQELILSNSEDKSIRVWDMSKRTG	soluble
MMYALIVCNGSIIDYSFYRKFFDEADFIVCADGGALHLQRLGIKPDVLLGDFDSIESEHLEYYMKQNVEILKFPAEKDMTDTELAVNTAIDRGYKNIVIIGGTGTRLDHTLSNIFLLKLMLDRGVKGRIINEYNEMFLINDSTEIEAEDGCYLTLLPLTSKVEGITTEGLYYPLRGEAIEMGSTRGVSNCFVEKKARISITSGILIAIKTRE	not soluble
MAFKPVSITGTRRQAGQALGKLARPLMATYLEQSTVWAALRPWRGHAYLEALAHEASQALPEIWDELEGLAEGLRMPLVDILLWNCRGDLLHKTSDGCTSIAWRGDEDARWIAHNEDGDPFLYGRCHMVDVRTDDAPGYISFYYPGSLPGHTFGANRAGLVQTINNVRIRQRHAGVPRMLLARAVLDCATLDDALAVLRDHPRAGGFHHTLGAAGEPRLYSVEASPAACSIGEVARGNGHANHLVHPGSEAIGQIVTDSSRSRQRHIENLMDHWQPPVDGARLVATLLDREGELPILRCGADDPDEENTLATALFEMRDGGLTLQVHDRRDQPALRVTVCPAALEHHHHHH	not soluble
MHRKISCGINDIKSEFFEAERMNNSVTVEVTRGNLVESRHQGLAVVVDGDGGVLFSAGDIERGIFPRSACKAMQALPLVESGATDAYGFGNRELALACSSHSGEDAHAELAAAMLAKAGRDVDTLECGAHWSSDQKTIIHQARTLEKPTALHNNCSGKHSGFICACCHTGTDPKGYVGYDHPLQRQIRATMESLTGAALGHDNCGVDGCSIPTYAVPLKGLAHGFAKMATGRGLEAERAKASRRLIEACMAEPFYVAGTGRACTKLMQIAPGKIFAKTGAEGVFIAALPNQGIAMAVKCEDGTTRAAEAMVTALLARYFDDGSAEQQALKGMANRQMRNWNGIHVGDISVIGLAAALEHHHHHH	soluble
SSQQIYGVKYGNVTFHVPSNQPLKEVLWKKQKDKVAELENSEFRAFSSFKNRVYLDTKSGSLTIYNLTSSDEDEYEMESPNITDSMKFFLYVGES	soluble
MSLDSRPAVLEISASIIDISENALEQLGVDWRLHNSRFDLQTGNGTNTMLNNPGSLDSVATTAGAAAAIAATPAGGVLSAVIGGGSRYLMARISALQQTDQARITANPKVATLDNTEAVMDNRQNFYVPVAGYQSADLYAISAGVSLRVLPMVVMDGGTVRIRMNVHIEDGQITSQQVGNLPITSQSEIDTQALINEGDSLLIAGYSVEQQSKSVDAVPGLSKIPLVGALFRTDQTTGKRFQRMFLVTPRVITPEGHHHHHH	soluble
MAAISFPLLQLPNFALNKTLKLMCVVPHLYLSIISKKAKRCITAVNEKPLYVHINKASSISLRLTTKSFQNFEFIITPGQSDLEIRKYITTRPLFNSYLSTNQCVLGVTAKQWIELIAQVFIQDKGVLLKLQNSNKFNIKEIQYYTRELNIVRLKIESSELQDTQLSKMFPKVEELTVTRDKIPSSILSRNFKKLRFDDIKVSLDNILISNCSSFLIFLQTLPDKDLNRFMKLWIKESNPNLKTFEVCFPDYEQTGLDGTILFKGIRCIDSIKHGEVTRKKFKRHDGTTALVSVFASTSFHFCMTVVG	not soluble
MGKYFGTDGVRGVANSELTPELAFKVGRFGGYVLTKDKQRPKVLIGRDTRISGHMLEGALVAGLLSIGAEVMRLGVISTPGVSYLTKAMDAEAGVMISASHNPVQDNGIKFFGGDGFKLSDEQEAEIERLMDEPEDKLPRPVGADLGLVNDYFEGGQKYLQFLKQTADEDFTGIHVALDCANGATSSLATHLFADLDADVSTMGTSPNGLNINDGVGSTHPEALSAFVKEKNADLGLAFDGDGDRLIAVDEKGNIVDGDQIMYICSKHLKSEGRLKDDTVVSTVMSNLGFYKALEKEGIKSVQTAVGDRYVVEAMKKDGYNVGGEQSGHLIFLDYNTTGDGLLSAIMLMNTLKATGKPLSELAAEMQKFPQLLVNVRVTDKYKVEENEKVKAVISEVEKEMNGDGRILVRPSGTEPLVRVMAEAKTKELCDEYVNRIVEVVRSEMGLE	not soluble
MGSDKIHHHHHHMKEKIVLAPQKGPQEMFLATSADICIYGGAAGGGKTFGLLLEPLRYMNNPDYNATIFRRDYTQVTSPGGLWDSSRKIYRYVKGSRPLKTPKLHWTFKRGASVNFAHLGRDEDCDDWQGSQLTMIGFDELTHFSEYQFFYMLSRNRTDSGVKPYVRATCNPDADSWVAEFISWWINQETGYPIPERSGVIRWMVRLNEVVTWFDSREEAVQGAIENGVKPEQAETMPKSVTFIASTLHDNKILMKNDPGYLANLQAMTLVQRERLLHGNWKIKAAAGLMFKRVKVNMLEEIPPDVIKWARGWDLAATSEDEKGDPAYTAGVLIGKRRNGRYIVADVINRRLSSSDVREIIKQTCIADRAKYGRVATRLPQDPGQAGKDQAQSFMKLLAGFTVKCIQESGDKVTRAEPFSAQWLGLEGMDKGNVDVLIAPWNEEYFNECENFPQSKFKDMVDASSSAFTELESGATYSAPPKDSQLGKSSYWNK	not soluble

From the DeepSol protein solubility set
